Data reported in article PMC2581641 (Molecular microbiology, 2008).

How the values were obtained:
Assay in all cases: two-hybrid
λCI-AlgQ fusion protein = target: T1, λCI-AlgQ fusion protein (P. aeruginosa, UniProt P15275 1-160)
T1 sequence (looked up): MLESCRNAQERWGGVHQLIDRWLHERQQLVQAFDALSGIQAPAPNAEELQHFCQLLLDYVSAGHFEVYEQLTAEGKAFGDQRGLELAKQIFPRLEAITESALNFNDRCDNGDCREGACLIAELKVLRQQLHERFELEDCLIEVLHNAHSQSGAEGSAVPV

[1] = target: T2, λCI-Rsd fusion protein with substitutions G14E and Y34F (E. coli, UniProt P0AFX4 1-158, G14E | Y34F)
T2 sequence (looked up): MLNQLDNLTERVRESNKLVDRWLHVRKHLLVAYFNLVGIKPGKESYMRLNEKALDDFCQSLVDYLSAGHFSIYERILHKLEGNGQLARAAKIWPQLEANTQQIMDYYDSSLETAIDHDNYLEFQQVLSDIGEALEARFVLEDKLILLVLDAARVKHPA

[2] = target: T3, λCI-Rsd fusion protein with substitution Y34F (E. coli, UniProt P0AFX4 1-158, Y34F)
T3 sequence (looked up): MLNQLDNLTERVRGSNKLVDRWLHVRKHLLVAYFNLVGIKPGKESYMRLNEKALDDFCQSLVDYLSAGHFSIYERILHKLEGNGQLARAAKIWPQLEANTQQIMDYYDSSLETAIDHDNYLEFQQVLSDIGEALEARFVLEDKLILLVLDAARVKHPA

[3] = target: T4, λCI-Rsd fusion protein with substitution G14E (E. coli, UniProt P0AFX4 1-158, G14E)
T4 sequence (looked up): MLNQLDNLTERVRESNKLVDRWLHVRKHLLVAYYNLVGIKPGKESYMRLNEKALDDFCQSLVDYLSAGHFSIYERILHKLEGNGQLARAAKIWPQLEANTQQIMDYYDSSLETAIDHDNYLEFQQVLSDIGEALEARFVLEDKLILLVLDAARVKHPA

Binder | fold activation of lacZ transcription (λCI-AlgQ fusion protein) | fold activation of lacZ transcription [1] | fold activation of lacZ transcription [2] | fold activation of lacZ transcription [3]
α-Pa σ^70 region 2 fusion protein (domain or fragment, P. aeruginosa, UniProt P26480 96-450, looked up) TTDPVRMYMREMGTVELLTREGEIEIAKRIEEGIREVMSAIAQFPGTVDSILADYNRIVAEGGRLSDVLSGYIDPDDGSLPAEEVEPVNLKDDSADSKEKDDEEEESDDSSDSDDEGDGGPDPEEARLRFTAVSEQLDKAKKALKKHGRGSKQATAELTGLAELFMPIKLVPKQFDALVARVRSALEGVRAQERAIMQLCVRDARMPRADFLRLFPNHETDEKWVDSVLKSKPKYAEAIERLRDDILRNQQKLAALESEVELTVAEIKEINRAMSIGEAKARRAKKEMVEANLRLVISIAKKYTNRGLQFLDLIQEGNIGLMKAVDKFEYRRGYKFSTYATWWIRQAITRSIADQ | ~14 fold | – | – | –
α-σ^70 region 2 fusion protein (domain or fragment, E. coli, UniProt P00579 94-448, looked up) TTDPVRMYMREMGTVELLTREGEIDIAKRIEDGINQVQCSVAEYPEAITYLLEQYDRVEAEEARLSDLITGFVDPNAEEDLAPTATHVGSELSQEDLDDDEDEDEEDGDDDSADDDNSIDPELAREKFAELRAQYVVTRDTIKAKGRSHATAQEEILKLSEVFKQFRLVPKQFDYLVNSMRVMMDRVRTQERLIMKLCVEQCKMPKKNFITLFTGNETSDTWFNAAIAMNKPWSEKLHDVSEEVHRALQKLQQIEEETGLTIEQVKDINRRMSIGEAKARRAKKEMVEANLRLVISIAKKYTNRGLQFLDLIQEGNIGLMKAVDKFEYRRGYKFSTYATWWIRQAITRSIADQAR | – | ~12 fold | ~9 fold | ~10 fold
